In doi:10.1101/2023.10.30.564768 (2023):
Residue numbers refer to the chain shown, from its start. Numbers in names are those of the source.

B1: LexA quad-mutant (QM): L89P, Q92W, E152A, K156A (natural protein)
chain: MKALTARQQEVFDLIRDHISQTGMPPTRAEIAQRLGFRSPNAAEEHLKALARKGVIEIVSGASRGIRLLQEEEEGLPLVGRVAAGEPLPAQWHIEGHYQVDPSLFKPNADFLLRVSGMSMKDIGIMDGDLLAVHKTQDVRNGQVVVARIDDAVTVARLKKQGNKVELLPENSEFKPIVVDLRQQSFTIEGLAVGVIRNGDWL
B2: His-LexA K156A (natural protein)
chain: B1 chain with P89L, W92Q, A152E

Target: T1, His-RecA WT, activated as RecA* (nucleoprotein filament on ssDNA with ATPγS) (E. coli, UniProt P0A7G6 1-353)
T1 chain: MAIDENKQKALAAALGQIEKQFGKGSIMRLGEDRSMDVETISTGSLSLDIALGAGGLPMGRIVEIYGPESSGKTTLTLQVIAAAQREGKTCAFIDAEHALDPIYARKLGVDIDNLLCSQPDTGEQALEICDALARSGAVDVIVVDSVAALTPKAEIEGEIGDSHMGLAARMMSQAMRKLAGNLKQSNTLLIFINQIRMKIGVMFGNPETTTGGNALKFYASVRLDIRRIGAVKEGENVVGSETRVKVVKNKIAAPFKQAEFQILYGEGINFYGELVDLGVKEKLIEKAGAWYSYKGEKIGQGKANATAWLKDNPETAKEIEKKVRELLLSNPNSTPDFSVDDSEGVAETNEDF
Test: FP; competition against LexA-δ

Binder | IC50 [nM]
B1 | 3800
B2 | 500
